Reference: US20040151721A1 (Takeda / Millennium, published 2004)
Several values for one entry are separate records, joined by “and”; a condition that tells them apart may be missing. Identical values can stand only once.

What was measured:
[1] = molecular target: T1, CCR5 expressed on L1/2 transfectants (UniProt P51681 1-352, limits assumed); experiment: flow cytometry on L1/2 transfectants, hybridoma supernatant
T1 construct: whole, on cells; also called CCR5 transfectants
Method: (§1) For the staining of cultured transfectant cell lines 0.5×10^6 cells in 50 μl were resuspended in PBS+1% FCS in a 96 well polystyrene V-bottom plate. 50 μl of primary antibody supernatants or HT medium (negative control) were added, and the samples were incubated at 4° C. for 30 min. 100 μl of PBS were added and the cells were pelleted by centrifugation and washed once with PBS. The pellet was resuspended in 100 μl PBS+1% FCS containing FITC-conjugated goat anti-mouse IgG antibody (a 1:250 dilution) and incubated for thirty minutes at 4° C. in the dark. The cells were washed twice with PBS, resuspended in PBS, and analyzed by flow cytrometry with a FacScan cytometer using the CellQuest software (Becton-Dickenson) Cells were fixed with PBS/1% formaldehyde if they were not to be analyzed the same day. Monoclonal antibodies 1D9 and 8G2 stain CCR2 transfectants but not CCR1 or CCR5 transfectants (FIG. 1).

[2] = molecular target: T2, CCR1 expressed on L1/2 transfectants (UniProt P32246 1-355, limits assumed); experiment: as above
T2 construct: whole, on cells; also called CCR1 transfectants
T2 sequence (looked up): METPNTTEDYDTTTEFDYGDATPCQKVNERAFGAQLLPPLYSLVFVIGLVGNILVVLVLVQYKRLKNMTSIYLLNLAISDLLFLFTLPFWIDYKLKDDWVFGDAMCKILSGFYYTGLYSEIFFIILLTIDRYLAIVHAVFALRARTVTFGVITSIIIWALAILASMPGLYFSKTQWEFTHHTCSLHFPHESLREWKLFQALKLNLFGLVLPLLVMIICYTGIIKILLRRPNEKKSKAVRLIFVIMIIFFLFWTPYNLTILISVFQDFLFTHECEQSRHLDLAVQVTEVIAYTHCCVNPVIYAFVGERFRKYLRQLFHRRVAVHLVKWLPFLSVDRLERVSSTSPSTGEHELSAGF
Method: as §1

[3] = molecular target: T3, human CCR2, endogenous on THP-1 cells / THP-1 cell membranes, fresh PBMC and whole blood cells (human, UniProt P41597 1-374); experiment: inhibition of 0.1 nM [125I]MCP-1 binding to THP-1 cell membranes, filtration and scintillation counting
T3 construct: whole, on cells; Native receptor; It was used on whole cells and as a THP-1 membrane preparation; The splice form is not specified for THP-1; also called CCR2b (on blood cells)
Method: The amount of bound tracer was determined by separation of free from bound by filtration and scintillation counting. The data was analyzed to determine the IC50 value by non-linear regression using a 4-parameter logistic equation with KaleidaGraph software.
(§2) Competition binding experiments were performed by including variable concentrations of unlabeled MCP-1, 1D9 antibody, or a negative control IgG2a. Nonspecific binding was determined following the addition of a 2500-fold excess of unlabeled MCP-1. Samples were incubated for 60 minutes at room temperature, and bound and free tracer were separated by filtration through 96-well GF/B filterplates presoaked in 0.3% polyethyleneimine.

[4] = molecular target: T3, human CCR2, endogenous on THP-1 cells / …; experiment: inhibition of 0.1 nM [125I]MCP-1 binding to fresh PBMC, filtration and scintillation counting
Method: The amount of bound tracer was determined by separation of free from bound by filtration and scintillation counting. The data was analyzed to determine the IC50 value as for FIG. 4.
as §2

T3 sequence (P41597 whole entry, canonical isoform): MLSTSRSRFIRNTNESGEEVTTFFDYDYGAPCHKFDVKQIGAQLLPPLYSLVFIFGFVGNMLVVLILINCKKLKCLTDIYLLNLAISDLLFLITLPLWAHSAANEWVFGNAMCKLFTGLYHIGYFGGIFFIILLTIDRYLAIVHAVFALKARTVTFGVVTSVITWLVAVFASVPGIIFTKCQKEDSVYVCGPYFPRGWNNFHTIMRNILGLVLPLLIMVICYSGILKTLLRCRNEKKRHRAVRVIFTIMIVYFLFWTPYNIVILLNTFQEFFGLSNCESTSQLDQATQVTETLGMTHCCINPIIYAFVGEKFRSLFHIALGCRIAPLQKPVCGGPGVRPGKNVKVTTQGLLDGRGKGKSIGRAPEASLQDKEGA
T1 sequence (P51681 whole entry): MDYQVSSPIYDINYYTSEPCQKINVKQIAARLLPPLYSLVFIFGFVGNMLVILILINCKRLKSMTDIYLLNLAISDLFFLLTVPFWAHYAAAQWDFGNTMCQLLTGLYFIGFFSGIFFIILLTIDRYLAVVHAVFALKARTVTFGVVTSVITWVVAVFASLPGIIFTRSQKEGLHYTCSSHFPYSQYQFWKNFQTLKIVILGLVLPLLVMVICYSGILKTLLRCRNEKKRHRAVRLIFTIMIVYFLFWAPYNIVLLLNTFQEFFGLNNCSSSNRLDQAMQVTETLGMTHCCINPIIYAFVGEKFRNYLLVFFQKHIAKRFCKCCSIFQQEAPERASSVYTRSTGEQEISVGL

binding result [1]: no binding
binding result [2]: no binding
IC50 [3]: ~0.004 µg/mL and ~0.02 nM
IC50 [4]: 0.04 µg/mL and ~0.2 nM
B1: murine monoclonal antibody LS132.1D9 (1D9) (antibody, V domains shown)
VH: EVQLVESGGGLVQPKGSLKLSCAASGFSFNAYAMNWVRQAPGKGLEWVARIRTKNNNYATYYADSVKDRYTISRDDSESMLFLQMNNLKTEDTAMYYCVTFYGNGVWGTGTTVTVSS
VL: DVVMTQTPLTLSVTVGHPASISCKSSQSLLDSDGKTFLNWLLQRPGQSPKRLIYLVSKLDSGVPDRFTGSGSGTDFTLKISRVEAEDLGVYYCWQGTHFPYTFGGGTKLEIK
notes: Mouse hybridoma antibody with a kappa light chain; The controls used were murine IgG2a and an 'isotype-matched' antibody, so IgG2a is implied; It was used as hybridoma supernatant in FACS; also called mAb 1D9; mus-1D9
